For test [1], the target named is T1, human BCMA on cells (HEK293T/huBCMA; NCI-H929) (human, UniProt Q02223 1-184).
T1 construct: whole, on cells; also called human BCMA molecules on NCI-H929 cell line
T1 sequence (looked up): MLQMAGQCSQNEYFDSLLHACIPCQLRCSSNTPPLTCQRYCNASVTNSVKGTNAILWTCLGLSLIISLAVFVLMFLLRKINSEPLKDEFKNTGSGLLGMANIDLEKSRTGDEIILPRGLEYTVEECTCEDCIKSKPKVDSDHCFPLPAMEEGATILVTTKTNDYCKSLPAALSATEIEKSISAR
As to the kind of experiment: FACS on NCI-H929 cell line [B]. As to the method: To study the binding activity of the BCMA arm of the BCMA×CD3 bispecific antibody to human BCMA, NCI-H929 cell line with highly expressed BCMA was used for binding experiments with human BCMA at cellular level. Briefly, NCI-H929 cell suspensions were collected. The cell density was adjusted to 1×10⁶ cells/mL, and the cells were inoculated in 96 well V-bottom plates at 100 μL cells/well (Corning, Cat#: 3894), followed by the addition of test antibodies at 100 μL/well, which is gradient diluted at 3 folds of the concentration with 2 folds of the final concentration. Cells were incubated at 4° C. for 2 hours in the dark. Afterwards, cells were washed twice with 100 μL/well of pre-cooled PBS, centrifuged at 500 g for 5 min at 4° C., and followed by discarding the supernatant. 100 μL/well of fluorescent secondary antibody (Alexa Fluor 488-conjugated AffiniPure Goat Anti-Human IgG, Fcγ Fragment Specific, Jackson, Cat#:109-545-06, 1:500 dilution) was added and incubated at 4° C. for 1 hour in the dark. Cells were washed twice with 100 μL/well of pre-cooled PBS, centrifuged at 500 g, 4° C. for 5 min, and followed by discarding the supernatant. Finally, the cells were resuspended with 200 μL/well of pre-cooled PBS, and the fluorescence luminescence signal values were read by BD FACS CANTOII.

The target of test [2] is T2, cynomolgus monkey CD3 on cynomolgus monkey T cells (cynomolgus monkey, UniProt Q95LI5 22-198).
T2 construct: whole, on cells; CD3 complex on primary T cells
As to the kind of experiment: FACS on cynomolgus monkey T cells [B]. As to the method: To study the in vitro binding activity of the CD3 arm of the BCMA×CD3 bispecific antibody, human and cynomolgus monkey T cells were used for antibody binding experiments at cellular level. Briefly, the density of human and cynomolgus monkey T cells was adjusted to 1×10⁶ cells/mL, respectively. Cells were inoculated at 100 μL cells/well in a 96 well V-bottom plate (Corning, Cat#: 3894), followed by the addition of test antibodies at 100 μL/well, which is gradient diluted at 3 folds of the concentration with 2 folds of the final concentration. Cells were incubated at 4° C. for 1 hour in the dark. Afterwards, cells were washed twice with 100 μL/well of pre-cooled PBS, centrifuged at 500 g in 4° C. for 5 min, and followed by discarding the supernatant. 100 μL/fluorescent secondary antibody (Alexa Fluor 488-conjugated AffiniPure Goat Anti- Human IgG, Fcγ Fragment Specific, Jackson, Cat#:109-545-06, 1: 500 dilution) was added and incubated for 30 min at 4° C. in the dark. Cells were washed twice with 100 μL/well of pre-cooled PBS, centrifuged at 500 g, 4° C. for 5 min, and followed by discarding the supernatant. Finally, the cells were resuspended with 200 μL/well of pre-cooled PBS, and the fluorescence luminescence signal values were read by BD FACS CANTOII.

Test [3] addresses T1, human BCMA on cells (HEK293T/huBCMA; …). As to the kind of experiment: FACS on HEK293T cell strain overexpressing human BCMA [C]. An excerpt: To study the in vitro binding activity of the BCMA arm of the BCMA×CD3 bispecific antibody, HEK293T cell strain overexpressing human BCMA (HEK293T/huBCMA) and HEK293T cell strain overexpressing cynomolgus monkey BCMA (HEK293T/cynoBCMA) were used for antibody binding experiments at cellular level. Briefly, HEK293T/huBCMA cells and HEK293T/cynoBCMA cells were digested and resuspended with DMEM complete medium. The cell density of the two was adjusted to 1×10⁶ cells/mL, respectively. Cells were inoculated at 100 μL cells/well in a 96 well V-bottom plate (Corning, Cat#: 3894), followed by the addition of test antibodies at 100 μL/well, which is gradient diluted at 3 folds of the concentration with 2 folds of the final concentration. Cells were incubated at 4° C. for 1 hour in the dark. Afterwards, the cells were washed twice with 100 μL/well of pre-cooled PBS, centrifuged at 500 g for 5 min at 4° C., and followed by discarding the supernatant. 100 μL/well of fluorescent secondary antibody (Alexa Fluor 488-conjugated AffiniPure Goat Anti-Human IgG, Fcγ Fragment Specific, Jackson, Cat#: 109-545-06, 1:500 dilution) was added and incubated for 30 min at 4° C. in the dark. […] Finally, the cells were resuspended with 200 μL/well of pre-cooled PBS, and the fluorescence luminescence signal values were read by BD FACS CANTOII. […]

The target in test [4] is T3, cynomolgus monkey BCMA on cells (HEK293T/cynoBCMA) (cynomolgus monkey, UniProt A0A2K5UD97 1-183).
T3 construct: whole, on cells
As to the kind of experiment: FACS on HEK293T cell strain overexpressing cynomolgus monkey BCMA [B), (C].

One may read the EC50 as the concentration needed to bring the measured effect to its halfway point.

T3 sequence (A0A2K5UD97 entry or part of it): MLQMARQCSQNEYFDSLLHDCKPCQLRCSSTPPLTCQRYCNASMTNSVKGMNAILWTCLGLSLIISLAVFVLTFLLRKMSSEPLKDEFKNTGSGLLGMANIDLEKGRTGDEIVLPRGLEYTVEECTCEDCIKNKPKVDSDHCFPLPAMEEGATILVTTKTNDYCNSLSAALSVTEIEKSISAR
T2 sequence (Q95LI5 22-198): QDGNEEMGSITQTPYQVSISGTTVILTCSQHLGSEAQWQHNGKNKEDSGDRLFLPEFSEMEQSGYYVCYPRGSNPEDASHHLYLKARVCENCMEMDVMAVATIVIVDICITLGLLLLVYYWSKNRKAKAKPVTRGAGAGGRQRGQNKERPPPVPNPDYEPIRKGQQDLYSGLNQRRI

B1: positive control 2, PR002199 (anti-BCMA (TNB308902) x CD3 (TNB_F2B) bispecific antibody) (bispecific antibody, human IgG1, kappa, L234A L235A)
heavy 1: EVQLVESGGGLVQPGRSLRLSCAASGFTFDDYAMHWVRQAPGKGLEWVSGISWNSGSIGYADSVKGRFTISRDNAKNSLYLQMNSLRAEDTALYYCAKDSRGYGDYRLGGAYWGQGTLVTVSSASTKGPSVFPLAPSSKSTSGGTAALGCLVKDYFPEPVTVSWNSGALTSGVHTFPAVLQSSGLYSLSSVVTVPSSSLGTQTYICNVNHKPSNTKVDKKVEPKSCDKTHTCPPCPAPEAAGGPSVFLFPPKPKDTLMISRTPEVTCVVVDVSHEDPEVKFNWYVDGVEVHNAKTKPREEQYNSTYRVVSVLTVLHQDWLNGKEYKCKVSNKALGAPIEKTISKAKGQPREPQVYTLPPCREEMTKNQVSLWCLVKGFYPSDIAVEWESNGQPENNYKTTPPVLDSDGSFFLYSKLTVDKSRWQQGNVFSCSVMHEALHNHYTQKSLSLSPGK
light: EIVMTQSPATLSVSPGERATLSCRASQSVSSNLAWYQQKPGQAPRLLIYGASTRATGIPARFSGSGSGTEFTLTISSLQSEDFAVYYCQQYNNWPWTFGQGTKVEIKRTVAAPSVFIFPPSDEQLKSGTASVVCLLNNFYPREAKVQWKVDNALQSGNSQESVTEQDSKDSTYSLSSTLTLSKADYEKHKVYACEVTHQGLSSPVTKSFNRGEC
heavy 2: EVQLLESGGGLVQPGGSLRLSCAASGFTVSSYGMSWVRQAPGKGPEWVSGIRGSDGSTYYADSVKGRFTISRDNSKNTLYLQMNSLRAEDTAVYYCAKQGENDGPFDHRGQGTLVTVSSGGGGSEVQLLESGGGLVQPGGSLRLSCAASGFTVSSYGMSWVRQAPGKGPEWVSGIRGSDGSTYYADSVKGRFTISRDNSKNTLYLQMNSLRAEDTAVYYCAKQGENDGPFDHRGQGTLVTVSSASEPKSSDKTHTCPPCPAPEAAGGPSVFLFPPKPKDTLMISRTPEVTCVVVDVSHEDPEVKFNWYVDGVEVHNAKTKPREEQYNSTYRVVSVLTVLHQDWLNGKEYKCKVSNKALGAPIEKTISKAKGQPREPQVCTLPPSREEMTKNQVSLSCAVKGFYPSDIAVEWESNGQPENNYKTTPPVLDSDGSFFLVSKLTVDKSRWQQGNVFSCSVMHEALHNHYTQKSLSLSPGK
notes: Three chains: HC1 (anti-CD3 heavy), LC (anti-CD3 kappa light), HC2 (two tandem anti-BCMA VH, then Fc)
For B1, the EC50 in test [1] is 8.7 nM; in test [3], 0.602 nM. The binding result in test [2] is “no binding (tested: about 300 nM)”; in test [4], “no binding (tested: 100 nM)”.

The record behind these values is US20220340673A1 (HARBOUR BIOMED SUZHOU, published 2022).
